The text below walks through data of the supplement of paper PMC12042874.

± gives the uncertainty stated by the source.

The series in a line: amyloid nucleation score (Sup35N fusion, yeast selection) (log enrichment); library NNK2; higher = more nucleation; inactive = no reads after selection. In outline:
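Growth for 7 days at 30°C on medium lacking adenine and uracil followed a 24-hour induction with 100 μM copper sulfate of psi-negative yeast expressing peptides of 20 random codons fused to Sup35N. Input and output plasmid inserts were sequenced with Illumina, and sequences with under 100 input reads were excluded. Nucleation score is the DiMSum log enrichment of output over input reads, centred on the mode score of non-aggregating sequences.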

As to LRPLL, the amyloid nucleation score was -0.912 ± 0.93.

Turning to RMLYVFSFTHNKVVIFARTE, the amyloid nucleation score was -1.11 ± 0.76. In the case of AGLRGIHEIGLLDAKWDDNH, the amyloid nucleation score result was “inactive”.

As to NCPPFHRMYLTSIIGSLSDD, the amyloid nucleation score was -0.306 ± 0.49.

Take EACLNGAA: the amyloid nucleation score turned out to be 0.638 ± 0.18. To GSQVLCGLRLPARGFWSYIM belongs 0.254 ± 0.3; to DSLEGVSCSLMSLSTLTGEC, 0.143 ± 0.54. In turn, FGPSRYTRSVFSVEQTSL gave an amyloid nucleation score of -0.114 ± 1. The substance CFIENILRFGSW registered an amyloid nucleation score of 3.1 ± 0.052. Regarding VGLWLTRVPPFVYGYRGSVS, the amyloid nucleation score stood at 0.165 ± 1. In turn, IARFSKKTSVSMGTRCAT yielded an amyloid nucleation score of 0.122 ± 0.3. The substance YLLHNSLKFRVHHSL came in with an amyloid nucleation score of -0.68 ± 0.39.

TFVKGKMFNLTRVWVLPYWT yielded an amyloid nucleation score of 0.318 ± 0.46. To ASDWLNRNSNS belongs -0.211 ± 0.28.

LIYNVDSVMNFVRVDNYDSP: the amyloid nucleation score worked out at 6.88 ± 0.087.

With FRMGY, the amyloid nucleation score result was “inactive”. The substance FGMRTGWREGGESCSTHERG returned an amyloid nucleation score of 1.14 ± 0.38.

The substance FAKIRGLITFVLQMWVTVYV had an amyloid nucleation score of -0.278 ± 0.45.

As for CLKEMVKVCRGWWRANGSGR, the amyloid nucleation score stood at 0.433 ± 0.46. For the substance FSRWVVVLVVQLWSLALRSN, the amyloid nucleation score stood at 0.369 ± 0.65.

The substance HLEMRPAMRIPLLRTDFWKV gave an amyloid nucleation score of 0.665 ± 0.19. In turn, YFKDLKADVRVKMTKLEWPQ had an amyloid nucleation score of 2.67 ± 0.12. For the substance LVWTVPTGVLFRHGC, the amyloid nucleation score turned out to be 1.57 ± 0.24. In the case of VVRSRW, the amyloid nucleation score amounted to 0.372 ± 0.42. AVNCH had an amyloid nucleation score of 0.748 ± 0.19. With FEFYLIARIFCPKGLLCESS the entry was “inactive”.

Regarding IADIVQGSGVAT, the amyloid nucleation score is -0.178 ± 0.26. Substance ADEVLYYGCVSSCLMFGVLI had an amyloid nucleation score of -0.069 ± 0.35. LIEVQGSFYIVSALIGYRCG: the amyloid nucleation score came out at 0.414 ± 0.21. As to DNKRWLRIWMKFLKGDMHGL, the amyloid nucleation score was -0.283 ± 1.1. With SRAGECSSWGHIYGLCVDLR the figure was -0.897 ± 0.55; with GEISIGMNLTGEKTSSSGFK, -0.679 ± 1.1. In the case of LSWDYLSWTREI, the amyloid nucleation score was -0.333 ± 0.24.

Regarding GSYCQWIYF, the amyloid nucleation score was 1.99 ± 0.22. Take ICGCKRSTVLWVSCFGV: the amyloid nucleation score amounted to 3.18 ± 0.12. In the case of VGCCVQGNLYSSFLAMFVA, the amyloid nucleation score came out at 7.352 ± 0.028. Take QDVGNKLKIWANITCARLWY: the amyloid nucleation score was -0.067 ± 0.65. LRRDL came in with an amyloid nucleation score of -0.408 ± 0.63. Turning to GFSTRYVFTSLYLKYFNRVY, the amyloid nucleation score was -0.476 ± 0.64. With TLHVVQFWKSCI the figure was -0.343 ± 0.45; with LLFTGNLGFTVSRSLSRRDR, 6.945 ± 0.069. On to HSAMFLYTKHVSPPGSWRVL, for which the amyloid nucleation score was 1.6 ± 0.13. To LRAWLSSLAHTKRRCELGTP belongs 0.575 ± 0.3; to THVECALMTYPDVYSDEGFI, -0.001 ± 0.32. SKCCASLTQLITTGVLAYRA: the amyloid nucleation score came to 0.489 ± 0.49. Regarding LELMEYPL, the amyloid nucleation score is -0.153 ± 0.45.

Take QDVSYPSWYPGAFC: the amyloid nucleation score was -0.675 ± 1.1. Substance NYSYMENYICQLACKTGEAG returned an amyloid nucleation score of 5.88 ± 0.084. For the substance VFVRRVGPQLFDPRSSNGVD, the amyloid nucleation score worked out at 0.951 ± 0.81. Consider HAKTWM, for which the amyloid nucleation score turned out to be 0.066 ± 1. Substance IVLQRVGCFKDAGGNRVWEM returned an amyloid nucleation score of 0.264 ± 0.45. Substance LLSIYVSSWKLRGSAPG showed an amyloid nucleation score of -0.337 ± 0.63.

On to DSILLSLCPTNCFKN, for which the amyloid nucleation score is -0.148 ± 0.63. Take LGTSRGNDVENRAYSRWVKV: the amyloid nucleation score turned out to be 0.524 ± 0.81.

Take SVIRMLYD: the amyloid nucleation score was -0.113 ± 0.45. For the substance VDYKSFRNYTFMDHYCSPYN, the amyloid nucleation score came to 1.08 ± 0.18. To SRYLSVIYYHRSNTWLRDRE belongs “inactive”. In turn, VRYTVTRTRGRYMVKCCENV returned an amyloid nucleation score of 0.108 ± 0.2. As to SRHRLAMRTAGTRVVSCWG, the amyloid nucleation score turned out to be 0.285 ± 0.3. With LYSCCLQCSSTNSIYEDLMC the entry was “inactive”; with VGFLW, 2.22 ± 0.13. For LHILRA, the amyloid nucleation score is 0.605 ± 0.47. LARASKHCSEVLGDCLA gave an amyloid nucleation score of 0.366 ± 0.8.

TLKVRNLNVQEFVVSPNQRH yielded an amyloid nucleation score of 4.99 ± 0.088.

Turning to NRDTM, the amyloid nucleation score was -1.13 ± 0.37. With LKMSHIYCSIIITAYLNWLV, the amyloid nucleation score result is “inactive”. For the substance VDKLGKLEVYSWLYWV, the amyloid nucleation score was -1.86 ± 0.55.

In turn, YTMWGWLAAMVREMETLGSK returned an amyloid nucleation score of -0.284 ± 0.61. The substance MVLNIDCFCDFYLALSCMSI had an amyloid nucleation score of 5.58 ± 0.079.

KSQILACYNQLP came in with an amyloid nucleation score of 0.83 ± 0.48. To HYISRHQLWILFFVKCVNSR belongs 5.01 ± 0.1.

In the case of GMIRLLGLFIKKRWRSNTCL, the amyloid nucleation score is -0.238 ± 0.5. LTIFNYSFWKVDY returned an amyloid nucleation score of 0.91 ± 0.18. With RRYGKW, the amyloid nucleation score came to 1.67 ± 0.41. Take NCWVVSQYTVVN: the amyloid nucleation score was -0.77 ± 0.79. To WIWVMWNKLCDSPDVWLANW belongs 0.816 ± 0.51. With KLISCGCVLADWNMGYP the figure was 3.76 ± 0.12; with MDLYCD, “inactive”; with DHIVYTLGCWGLRSPFKPLL, 0.026 ± 1.1.

As for ALYLL, the amyloid nucleation score was 0.154 ± 0.23.

For the substance SRYACVRLICQVWPLWVGSG, the amyloid nucleation score turned out to be 0.875 ± 0.43. Consider LAAVLVHAWFVKRLRMPNHH, for which the amyloid nucleation score is 0.93 ± 0.44. To SSYTMEPPHVRA belongs 0.155 ± 1.1; to VVIRCFYGTERNASWLLVCL, -0.059 ± 0.24. For the substance WMSFTHLLNTIAVMSYLTVL, the amyloid nucleation score was -0.249 ± 0.25.

IFYSSLALVWLYNLMDRECT yielded an amyloid nucleation score of 2.18 ± 0.17.

Take KTAVSNVRCMY: the amyloid nucleation score was -0.227 ± 0.62. SPFRTDHVF returned an amyloid nucleation score of -0.311 ± 0.33. In turn, SSKYYA registered an amyloid nucleation score of -0.131 ± 0.32.

ISGAL showed an amyloid nucleation score of 0.203 ± 0.45. To YRPAWMDWF belongs 1.78 ± 0.16.

Substance FSGKMN had an amyloid nucleation score of 0.301 ± 0.57. On to GGTVEARSKGILSLSGW, for which the amyloid nucleation score entry was “inactive”.

IVRELAVVLKKFYLFALFLR returned an amyloid nucleation score of -0.882 ± 0.62.

Take GPLFHTTRLRDNHM: the amyloid nucleation score is 3.11 ± 0.11. The substance YRVYLQRHSGA had an amyloid nucleation score of 3.78 ± 0.069.

As to LSFRGDSR, the amyloid nucleation score came out at 0.243 ± 0.26. With SKLFESLVTCLIKGLHVVNN the figure was 0.479 ± 0.74. In the case of YIDGDNYHGILCHSRV, the amyloid nucleation score worked out at 3.86 ± 0.11.

As to WSRSNLCTFSFLGNIISPDR, the amyloid nucleation score came out at 4.02 ± 0.073. For the substance SMGYYDLFELYPNRHGYYGF, the amyloid nucleation score entry was “inactive”. As to TYPRDYVVRSEI, the amyloid nucleation score was 0.74 ± 0.43. To RWQCLVEHMRSANLGVRRGP belongs 0.074 ± 0.41; to FCYCLIKGCMLEGLSNYSCD, -0.613 ± 1.1; to LISATPQSSFHHFEMNSGSH, 0.275 ± 0.23. YNSVKLLEGPFLCSSLTGS: the amyloid nucleation score is 0.444 ± 0.6. With SMGMLP the figure was -0.641 ± 1.1. On to QILNGSAY, for which the amyloid nucleation score is -0.899 ± 0.3.

With PKVLGFFK, the amyloid nucleation score entry was “inactive”.

Turning to VIYSYMSGIVYGVMRSSPFW, the amyloid nucleation score entry was “inactive”.

As for CRMHVFVEC, the amyloid nucleation score was -0.019 ± 0.53. As to VPSGSLD, the amyloid nucleation score entry was “inactive”. As for NGTLRAFVIKKVRIIDSRQV, the amyloid nucleation score is 4.09 ± 0.076. For the substance FEYIVVESVCRSWWNLVS, the amyloid nucleation score was -0.051 ± 0.55. For the substance FFISLDRVMLTGLKLTCPLG, the amyloid nucleation score is -0.266 ± 1.1. Consider DWLNSVFFLPFKCGLCVLRA, for which the amyloid nucleation score is 0.06 ± 0.4. With FSLEMTLFWPVFRLCPISSL the figure was 0.606 ± 0.66; with VNHLYYCFCTLITHEVRVVS, 5.363 ± 0.034. CFKDYQIGSCKQSL yielded an amyloid nucleation score of -0.499 ± 0.76.

Regarding ECLTLFRTGRM, the amyloid nucleation score was 5.306 ± 0.037.

With PATDPWCS, the amyloid nucleation score was -0.14 ± 0.25. Consider RMCMR, for which the amyloid nucleation score is 0.017 ± 0.34. For the substance LCGNRGFYDH, the amyloid nucleation score was -0.177 ± 0.54. Take EVVLSAILQHYMSFVSGDDL: the amyloid nucleation score was -0.201 ± 0.41.

MFGNTGLTSYYALTGTRWLY returned an amyloid nucleation score of -0.487 ± 0.79. To SNSGINHIRCCLYPLFYLIM belongs 2.35 ± 0.13; to VTFLGDIRYFRCWCL, 9.561 ± 0.077; to YFLSGRVSEGSAITIRELSP, 2.34 ± 0.091. With NGPVQIASGGRRVPLLWEVL the figure was 0.098 ± 0.79; with LSAVLSAHIMVCLGYAYLG, “inactive”. Substance WLIKKASRYSN returned an amyloid nucleation score of -0.608 ± 1.1. To YSFCKCVIVGIWFRLGWCQA belongs “inactive”; to DLEVLSLGGINFFVVDTFMI, 0.964 ± 0.28; to FSLHKCNVRLGISNGT, -0.276 ± 0.48.

Substance IIVGATKMLCCFHVMMVYAP had an amyloid nucleation score of 0.472 ± 0.8. On to SESHICGV, for which the amyloid nucleation score was -1.62 ± 0.62. Take TAKDAFMFQGLASLS: the amyloid nucleation score entry was “inactive”. To RTVGLSHIIICN belongs 0.089 ± 0.5; to GEAFRKDPLRCYMFQGIIEQ, 2.1 ± 0.14; to LFRRGKILACIYA, 0.016 ± 1.1. With NFKNATIAFIGNMTMIVPRG the figure was 8.291 ± 0.038.

For CSLMNNRVHFVWSHRRMSGT, the amyloid nucleation score amounted to 0.276 ± 1.
